Reference: the supplement of paper PMC10065799, “High-throughput profiling of sequence recognition by tyrosine kinases and SH2 domains using bacterial peptide display” (eLife, 2023)

How the values were obtained:
FGFR1 = FGFR1 (UniProt P11362); experiment: phosphorylation enrichment, bacterial display (enrichment ratio); higher = better substrate or ligand; peptides without Tyr show the background
EPHB1 = EPHB1 (UniProt P54762); experiment: as above
AncSZ = experiment: as above
MERTK = MERTK (UniProt Q12866); experiment: as above
Fyn = Fyn (UniProt P06241); experiment: as above
Fes = Fes (UniProt P07332); experiment: as above
c-Abl (mouse) = experiment: as above
Hck = Hck (UniProt P08631); experiment: as above
Jak2 = Jak2 (UniProt O60674); experiment: as above
EPHB2 = EPHB2 (UniProt P29323); experiment: as above
Fer (mouse) = experiment: as above
c-Src = experiment: as above
FGFR3 = FGFR3 (UniProt P22607); experiment: as above
c-Src SH2 = experiment: SH2 binding enrichment of the phosphorylated peptide, bacterial display (enrichment ratio); higher = better substrate or ligand; peptides without Tyr show the background
SHP2-C SH2 = experiment: as above
Grb2 SH2 = Grb2 SH2 (UniProt P62993); experiment: as above
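For SH2 binding enrichment of the phosphorylated peptide, bacterial display in this document: peptide library displayed on the E. coli surface as eCPX fusions, selected cells deep-sequenced, score is each peptide's frequency after selection divided by its frequency in the input.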
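For phosphorylation enrichment, bacterial display in this document: 11-residue human phosphosite peptides and single-mutation variants displayed on the E. coli surface, counted by deep sequencing, each peptide's frequency after selection divided by its frequency in the unselected input library; frequency after pTyr selection over input frequency; kinase dosed for 20-30% of maximal phosphorylation in three min.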

Jak2, sequence (O60674 whole entry, looked up): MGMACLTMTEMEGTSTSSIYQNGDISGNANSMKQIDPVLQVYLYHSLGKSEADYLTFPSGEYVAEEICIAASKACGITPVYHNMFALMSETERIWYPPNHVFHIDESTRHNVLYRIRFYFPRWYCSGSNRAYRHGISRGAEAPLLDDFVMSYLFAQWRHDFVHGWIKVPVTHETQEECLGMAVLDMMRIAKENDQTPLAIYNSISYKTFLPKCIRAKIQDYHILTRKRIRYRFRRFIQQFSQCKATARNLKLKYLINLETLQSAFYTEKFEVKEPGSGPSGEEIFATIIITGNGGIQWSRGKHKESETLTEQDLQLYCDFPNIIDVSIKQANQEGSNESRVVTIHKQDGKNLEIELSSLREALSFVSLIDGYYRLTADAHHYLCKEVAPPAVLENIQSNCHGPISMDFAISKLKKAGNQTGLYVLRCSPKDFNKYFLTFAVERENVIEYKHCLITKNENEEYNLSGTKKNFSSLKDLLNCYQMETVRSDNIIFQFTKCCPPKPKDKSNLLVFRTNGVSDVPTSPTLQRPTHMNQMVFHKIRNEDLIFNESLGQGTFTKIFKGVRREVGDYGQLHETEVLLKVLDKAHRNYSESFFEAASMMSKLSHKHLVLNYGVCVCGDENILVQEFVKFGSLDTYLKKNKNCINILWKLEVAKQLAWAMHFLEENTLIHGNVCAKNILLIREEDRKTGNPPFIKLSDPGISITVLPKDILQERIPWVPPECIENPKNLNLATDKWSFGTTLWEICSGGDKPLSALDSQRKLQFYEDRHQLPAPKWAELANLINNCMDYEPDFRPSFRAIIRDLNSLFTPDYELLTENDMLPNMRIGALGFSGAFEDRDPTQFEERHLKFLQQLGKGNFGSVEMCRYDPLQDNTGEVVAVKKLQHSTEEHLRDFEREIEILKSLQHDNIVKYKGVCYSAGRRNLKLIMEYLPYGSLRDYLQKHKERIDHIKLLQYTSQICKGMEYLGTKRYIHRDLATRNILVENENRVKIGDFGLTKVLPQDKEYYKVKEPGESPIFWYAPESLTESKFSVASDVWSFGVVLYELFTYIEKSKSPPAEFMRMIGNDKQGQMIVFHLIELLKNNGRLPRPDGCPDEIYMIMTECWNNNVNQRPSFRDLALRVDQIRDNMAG
FGFR3, sequence (P22607 whole entry, looked up): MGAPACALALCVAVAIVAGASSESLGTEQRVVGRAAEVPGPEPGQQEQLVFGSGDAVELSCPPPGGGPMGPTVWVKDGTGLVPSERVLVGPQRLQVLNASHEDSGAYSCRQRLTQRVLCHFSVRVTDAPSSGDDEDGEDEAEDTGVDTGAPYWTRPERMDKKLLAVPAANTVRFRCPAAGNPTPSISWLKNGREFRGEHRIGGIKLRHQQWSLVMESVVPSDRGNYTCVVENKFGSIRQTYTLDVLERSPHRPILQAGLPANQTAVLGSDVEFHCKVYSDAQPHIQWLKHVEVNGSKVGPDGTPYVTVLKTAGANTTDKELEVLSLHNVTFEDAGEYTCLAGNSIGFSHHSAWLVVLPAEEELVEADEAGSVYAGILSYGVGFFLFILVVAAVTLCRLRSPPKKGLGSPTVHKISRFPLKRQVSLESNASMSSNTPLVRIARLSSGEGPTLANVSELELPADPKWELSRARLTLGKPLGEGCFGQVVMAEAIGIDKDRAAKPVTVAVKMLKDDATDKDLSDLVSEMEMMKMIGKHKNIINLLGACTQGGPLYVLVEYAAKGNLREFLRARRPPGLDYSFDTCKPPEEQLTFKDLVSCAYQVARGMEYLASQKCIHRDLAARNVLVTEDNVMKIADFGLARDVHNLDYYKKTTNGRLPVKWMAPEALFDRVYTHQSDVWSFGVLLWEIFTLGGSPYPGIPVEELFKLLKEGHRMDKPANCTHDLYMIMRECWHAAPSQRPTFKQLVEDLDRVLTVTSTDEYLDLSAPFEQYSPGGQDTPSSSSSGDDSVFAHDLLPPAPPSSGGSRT
Grb2 SH2, sequence (P62993 whole entry, looked up, the tested form may be a part): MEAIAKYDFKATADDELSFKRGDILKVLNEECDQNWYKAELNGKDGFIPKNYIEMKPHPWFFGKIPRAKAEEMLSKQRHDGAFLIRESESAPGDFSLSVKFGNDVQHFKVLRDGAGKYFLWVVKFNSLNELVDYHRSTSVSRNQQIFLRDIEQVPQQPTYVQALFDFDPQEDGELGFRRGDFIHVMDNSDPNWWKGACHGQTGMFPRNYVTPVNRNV
EPHB2, sequence (P29323 whole entry, looked up): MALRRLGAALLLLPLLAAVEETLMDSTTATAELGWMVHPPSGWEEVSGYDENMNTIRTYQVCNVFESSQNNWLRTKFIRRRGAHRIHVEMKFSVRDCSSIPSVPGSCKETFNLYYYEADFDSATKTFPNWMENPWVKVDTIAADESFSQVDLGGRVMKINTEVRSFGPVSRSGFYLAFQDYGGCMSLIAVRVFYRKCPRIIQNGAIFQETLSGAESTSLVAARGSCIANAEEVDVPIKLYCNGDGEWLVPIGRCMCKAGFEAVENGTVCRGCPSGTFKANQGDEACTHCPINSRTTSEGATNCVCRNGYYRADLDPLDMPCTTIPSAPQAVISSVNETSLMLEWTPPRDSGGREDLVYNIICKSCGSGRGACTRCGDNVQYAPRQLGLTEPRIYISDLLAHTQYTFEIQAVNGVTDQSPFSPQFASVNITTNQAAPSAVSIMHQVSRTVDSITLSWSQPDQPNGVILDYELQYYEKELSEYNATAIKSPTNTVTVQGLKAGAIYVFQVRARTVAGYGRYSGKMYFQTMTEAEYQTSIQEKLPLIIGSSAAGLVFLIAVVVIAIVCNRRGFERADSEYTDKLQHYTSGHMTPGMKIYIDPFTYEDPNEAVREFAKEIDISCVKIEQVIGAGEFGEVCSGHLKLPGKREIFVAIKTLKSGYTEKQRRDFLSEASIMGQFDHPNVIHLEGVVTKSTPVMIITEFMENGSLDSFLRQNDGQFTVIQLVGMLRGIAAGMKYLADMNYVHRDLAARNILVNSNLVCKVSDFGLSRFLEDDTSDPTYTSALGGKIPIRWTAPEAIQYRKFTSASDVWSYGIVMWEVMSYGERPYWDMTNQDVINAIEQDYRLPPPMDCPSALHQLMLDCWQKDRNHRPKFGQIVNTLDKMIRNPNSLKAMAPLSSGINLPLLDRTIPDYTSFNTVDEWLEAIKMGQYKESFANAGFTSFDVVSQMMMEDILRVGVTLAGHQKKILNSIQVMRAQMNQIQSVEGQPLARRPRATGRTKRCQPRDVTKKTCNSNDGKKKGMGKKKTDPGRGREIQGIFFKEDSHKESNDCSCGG
Fyn, sequence (P06241 whole entry, looked up): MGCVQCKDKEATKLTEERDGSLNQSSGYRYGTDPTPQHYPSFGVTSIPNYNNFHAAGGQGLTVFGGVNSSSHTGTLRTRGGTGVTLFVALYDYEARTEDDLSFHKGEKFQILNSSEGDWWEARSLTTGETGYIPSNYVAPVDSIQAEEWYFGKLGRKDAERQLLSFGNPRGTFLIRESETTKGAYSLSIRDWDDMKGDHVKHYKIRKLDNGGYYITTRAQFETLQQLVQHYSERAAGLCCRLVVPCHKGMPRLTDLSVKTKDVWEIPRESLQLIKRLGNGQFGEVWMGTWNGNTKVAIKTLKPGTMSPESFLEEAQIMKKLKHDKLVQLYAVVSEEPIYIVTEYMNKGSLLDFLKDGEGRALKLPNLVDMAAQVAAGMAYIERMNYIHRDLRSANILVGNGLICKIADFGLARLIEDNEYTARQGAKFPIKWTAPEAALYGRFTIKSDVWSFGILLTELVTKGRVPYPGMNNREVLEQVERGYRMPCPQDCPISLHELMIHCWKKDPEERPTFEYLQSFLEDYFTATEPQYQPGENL
FGFR1, sequence (P11362 whole entry, looked up): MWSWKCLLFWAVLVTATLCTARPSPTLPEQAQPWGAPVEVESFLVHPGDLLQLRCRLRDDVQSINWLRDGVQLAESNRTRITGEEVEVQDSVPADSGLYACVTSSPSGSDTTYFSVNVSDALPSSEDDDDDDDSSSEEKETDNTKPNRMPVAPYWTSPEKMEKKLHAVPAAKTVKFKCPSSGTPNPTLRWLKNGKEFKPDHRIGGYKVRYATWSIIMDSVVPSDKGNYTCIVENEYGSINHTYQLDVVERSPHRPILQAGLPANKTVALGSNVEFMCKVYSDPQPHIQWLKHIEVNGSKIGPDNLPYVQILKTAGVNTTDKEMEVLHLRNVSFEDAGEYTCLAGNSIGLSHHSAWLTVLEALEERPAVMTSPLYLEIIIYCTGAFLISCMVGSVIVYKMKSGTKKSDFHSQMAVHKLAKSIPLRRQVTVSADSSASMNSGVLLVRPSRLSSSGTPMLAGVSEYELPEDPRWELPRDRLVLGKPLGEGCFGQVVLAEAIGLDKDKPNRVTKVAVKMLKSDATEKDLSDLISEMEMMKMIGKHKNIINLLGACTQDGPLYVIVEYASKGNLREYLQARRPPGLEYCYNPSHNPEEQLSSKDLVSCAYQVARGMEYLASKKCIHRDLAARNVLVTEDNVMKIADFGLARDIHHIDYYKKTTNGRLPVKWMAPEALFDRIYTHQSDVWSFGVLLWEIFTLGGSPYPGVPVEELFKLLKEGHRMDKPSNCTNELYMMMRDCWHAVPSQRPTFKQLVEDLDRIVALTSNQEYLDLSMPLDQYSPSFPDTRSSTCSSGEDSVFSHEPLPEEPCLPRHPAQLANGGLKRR

Sequence	phosphorylation enrichment (FGFR1)	phosphorylation enrichment (EPHB1)	phosphorylation enrichment (AncSZ)	phosphorylation enrichment (MERTK)	phosphorylation enrichment (Fyn)	phosphorylation enrichment (Fes)	phosphorylation enrichment (c-Abl (mouse))	phosphorylation enrichment (Hck)	phosphorylation enrichment (Jak2)	phosphorylation enrichment (EPHB2)	phosphorylation enrichment (Fer (mouse))	phosphorylation enrichment (c-Src)	phosphorylation enrichment (FGFR3)	SH2 binding enrichment (c-Src SH2)	SH2 binding enrichment (SHP2-C SH2)	SH2 binding enrichment (Grb2 SH2)
TLNHQYDFTFH [CSNK1A1_Y292_D297H_YF]	0.557	0.759	1.02	0.557	0.588	1.17	0.735	0.559	0.738	0.624	0.685	0.58	0.785	4.74	0.717	1.01
NFATLHLKIYH [PDE6B_Y219_Y219H]	0.423	0.675	1.16	0.46	0.476	1.41	1.01	0.47	1.12	0.536	0.498	0.568	0.755	0.885	0.953	0.954
IFRASYFRKGG [ALK_Y1282_YF]	0.518	0.55	1.02	0.706	0.619	0.899	0.721	0.674	1.11	0.621	0.581	0.688	0.625	0.461	0.513	0.589
FADIAYIYRHG [PAH_Y166_N167I]	0.616	0.506	0.842	0.416	0.432	0.978	0.685	0.445	1.02	0.497	0.486	0.638	0.583	0.695	1.06	0.936
GYRPVYSEDEQ [CHST6_Y362]	0.471	0.677	1.26	0.48	0.61	1.24	0.774	0.49	1.16	0.762	0.643	0.636	0.806	0.692	0.669	0.921
LVRAFYCERRR [CARD11_Y970]	0.766	0.62	0.684	0.902	0.844	0.713	0.597	1.14	0.705	1.71	0.624	0.988	0.585	0.243	0.449	0.383
AVRVFYRKCPR [EPHB2_Y194]	0.428	0.345	0.948	0.517	0.464	0.655	0.78	0.512	0.7	0.463	0.518	0.557	0.645	0.417	0.529	0.611
PSPMPCASCQM [FOXL2_Y215_Y215C]	0.445	0.354	0.541	0.588	0.603	0.516	0.799	0.41	0.766	0.287	0.488	0.37	0.559	0.523	0.606	0.797
YMLYQYLKQIE [RPAP3_Y569_D564Y]	6.02	13.3	1.53	8.62	1.56	1.11	1.6	5.99	1.85	10.5	6.78	2.25	4.47	1.44	2.83	1.94
IAINKYGVSLI [MYO7A_Y2136]	0.619	0.608	0.837	0.426	0.432	1.12	0.744	0.497	1.01	0.613	0.527	0.441	0.594	0.657	0.703	0.946
LQRCKYSHMEP [TEX45_Y434]	0.663	0.513	1.21	0.614	0.375	1.35	1.16	0.672	1.5	0.876	0.582	0.982	0.957	0.78	1.1	0.64
QQLVAYYSKHT [SRC_Y232_A237T]	0.818	1.42	1.13	0.629	0.889	0.951	0.906	0.653	0.932	0.92	0.42	0.591	0.926	0.823	1.48	0.865
DLDATYRPMYS [JUP_Y701_M697L]	0.383	0.399	0.699	0.386	0.46	0.86	0.486	0.6	0.588	0.444	0.433	0.569	0.512	0.502	0.832	0.798
LHAAAYRNALA [UQCRC2_Y182]	0.415	0.362	0.686	0.407	0.55	0.871	0.303	0.484	0.594	0.491	0.33	0.398	0.402	0.559	0.682	0.691
KAIMIYVSSFY [ACTN4_Y260_T259I]	0.464	0.47	0.963	0.347	0.368	1.08	0.972	0.416	1.03	0.52	0.422	0.465	0.701	0.476	0.845	0.816
MSYDRYMAICH [OR2A5_Y123]	0.509	0.846	0.909	0.484	0.511	1.03	0.695	0.646	0.895	0.704	0.498	0.485	0.672	0.79	0.605	0.753
LGQRIYQYIRS [DYRK1B_Y271_Q275R]	1.54	11.1	1.42	7.5	1.65	1.56	2.38	5.58	1.98	3.2	4.1	3.09	0.959	3.25	1.51	1.14

Sequence	phosphorylation enrichment (FGFR1)	phosphorylation enrichment (EPHB1)	phosphorylation enrichment (AncSZ)	phosphorylation enrichment (MERTK)	phosphorylation enrichment (Fyn)	phosphorylation enrichment (Fes)	phosphorylation enrichment (c-Abl (mouse))	phosphorylation enrichment (Hck)	phosphorylation enrichment (Jak2)	phosphorylation enrichment (EPHB2)	phosphorylation enrichment (Fer (mouse))	phosphorylation enrichment (c-Src)	phosphorylation enrichment (FGFR3)	SH2 binding enrichment (c-Src SH2)	SH2 binding enrichment (SHP2-C SH2)	SH2 binding enrichment (Grb2 SH2)
RLLRGHDQSAY [HLA-C_Y137_Y137H]	0.417	0.403	0.632	0.371	0.336	0.587	0.597	0.549	0.754	0.336	0.387	0.361	0.455	0.623	0.747	0.959
CTTIHYNFTCN [TP53_Y234_M237T_YF]	0.496	0.448	0.797	0.42	0.443	0.866	0.634	0.414	0.704	0.6	0.426	0.441	0.593	1.67	1.83	1.96
ALAPKYHGGGG [HBB_Y146_H144P]	0.327	0.315	0.314	0.386	0.31	0.506	0.423	0.348	0.423	0.356	0.332	0.389	0.248	0.341	0.411	0.607
IYKAAYFGVYD [SLC25A4_Y191_R188K]	0.628	1.4	1.17	1.4	6.16	1.05	0.865	5.77	0.993	1.32	0.893	5.18	0.745	2.31	1.11	0.923
PVKTPYSLKRW [BMPR2_Y979_R974P]	0.653	0.499	1.04	0.586	0.63	1.49	1.14	0.427	1.36	0.84	0.609	0.987	0.789	0.992	1.2	1.46
ELELLYPDRNS [NYX_Y284_L285P]	0.776	0.556	1.17	0.433	0.492	1.27	0.799	0.534	1.03	0.544	0.463	0.489	0.759	0.513	1.01	0.831
LNAGAYSKVVQ [PPT1_Y172]	0.41	0.703	1.12	0.627	0.529	0.974	0.994	0.357	1.28	0.557	1.02	0.84	0.686	1.71	5.07	0.623
GGYTWYCDGKK [PROS1_Y266_C265W]	0.455	0.641	1.1	0.359	0.362	1.24	0.882	0.414	1.47	0.537	0.524	0.399	0.795	0.455	0.524	0.667
MKGEYYRYLAE [YWHAG_Y131_D129E]	4.14	0.685	1.12	0.471	0.606	1.07	0.82	0.732	1.42	0.779	0.429	0.795	2.92	0.676	1.12	0.922
SGRSGYCLGTR [SCO1_Y60_P58S]	0.518	0.309	0.586	0.55	0.341	0.834	0.514	0.348	0.617	0.535	0.399	0.424	0.432	1.01	0.752	1.19
DGKYSYLKVGH [GRM3_Y480_G475D]	0.38	0.303	0.442	0.44	0.372	0.623	0.284	0.455	0.437	0.297	0.372	0.352	0.427	4.12	1.45	1.05
MHDKEYFSVHN [MET_Y1234_Y1230H_YF]	1.4	0.554	0.954	0.449	0.53	0.741	0.737	0.494	0.921	0.619	0.497	0.487	0.969	0.683	0.834	1.12
KAIDMYLMGCF [GABRB2_Y308]	0.504	0.566	1.27	0.425	0.515	1.21	1.06	0.535	1.04	0.551	0.486	0.75	1.04	0.44	0.648	0.823
QNRELYSEGLG [CNKSR1_Y665]	0.578	0.536	0.516	0.443	0.434	0.789	1.33	0.895	0.497	0.454	0.309	0.446	0.397	0.536	0.616	0.74
LIDGYYRLTED [JAK2_Y373_A377E]	1.51	0.708	1.48	0.574	0.625	1.32	1.07	0.778	7.39	0.914	0.564	0.899	1.57	9	4.88	0.886
KLMTEYKRRKQ [ARFGEF3_Y2029_K2031R]	0.677	0.477	0.661	0.536	0.544	0.572	0.503	0.521	0.458	0.496	0.573	0.526	0.646	0.342	0.636	0.642
